Assay results taken from paper doi:10.1101/2024.10.28.620641 (bioRxiv, 2024).

Biological target: the molecule itself
Experiment: cryo-EM structure

B1: Caulobacter crescentus Tad pilus ATPase CpaF (enzyme, Caulobacter crescentus NA1000, UniProt Q9L714 1-501, looked up)
chain: MFGKRDSSASGDPKAPPPAPAGGATIATRPQRVEPVAAPEPKAPAPKVSGPAPKPTVGLEQLRAAQGQPQTANIVREQSDYYHATKTTIFNALLNTIDLSQLAQLDLKQAGEEIRDIVAELVAIKNVSMSVAEQEHLVQDIINDVLGYGPLEPLLARDDIADIMVNGAHRVFIEVGGKVQLTNVRFRDNLQLMNICQRIVSQVGRRVDESSPICDARLPDGSRVNVIAPPLALDGPTLTIRKFKKDKLTMKNLVEFASISPEGARVLGVIGACRCNLVISGGTGSGKTTLLNTMTAFIDPTERVVTCEDAAELQLQQPHVVRLETRPPNLEGSGAVTMRDLVKNCLRMRPERIIVGEVRGPEAFDLLQAMNTGHDGSMGTLHANSPREAISRIESMITMGGYGLPSKTIKEMIVGSVDVIIQAARLRDGSRRITHITEVVGLEGDVIVTQDLFVYEITGEDEHGKVVGKHRSTGIARPRFWDRARYYGLERELAEALDAAE
  stoichiometry N: 6
